Results published in article PMC4072690 (PLoS ONE, 2014).

Experiments:
[1] = biological target: T1, Francisella tularensis SchuS4 recombinant GroEL with N-terminal His tag (Francisella tularensis subsp. …, UniProt Q5NEE1); test: ELISA; conditions: one partner purified
T1 construct: source: E. coli BL21(DE3)pLysS, pET14b, IPTG induced, in BugBuster lysate; not shown: His6, N-terminal, kept

[2] = biological target: Francisella tularensis LVS recombinant GroEL with N-terminal His tag (Francisella tularensis subsp. …, UniProt P94798, strain); test: ELISA; conditions: one partner purified
[3] = biological target: T2, GroEL of Francisella tularensis SchuS4, endogenous (Francisella tularensis subsp. …, UniProt Q5NEE1); test: ELISA; conditions: one partner purified
T2 construct: source: endogenous, SchuS4 NP40 lysate

[4] = biological target: T3, purified FtGroEL used in the DXMS experiments (Francisella tularensis, strain not …, UniProt Q5NEE1); test: HDX-MS; conditions: both partners purified
T3 construct: copies: 14

[5] = biological target: T4, Escherichia coli GroEL, endogenous (Escherichia coli TG1 (K-12) and BL21, UniProt P0A6F5); test: Western blot; conditions: one partner purified
T4 construct: also called EcGroEL

[6] = biological target: GroEL of Francisella tularensis LVS, endogenous (Francisella tularensis subsp. …, UniProt P94798, strain); test: competition Western blot; conditions: one partner purified
[7] = biological target: T4, Escherichia coli GroEL, endogenous; test: ELISA; conditions: one partner purified
[8] = biological target: T1, Francisella tularensis SchuS4 …; test: Western blot; conditions: one partner purified

Row | Binder | binding result [1] | binding result [2] | binding result [3] | binding result [4] | binding result [5] | binding result [6] | binding result [7] | binding result [8]
1 | Ab53 mouse monoclonal antibody (IgG2a,κ) specific for FtGroEL (antibody, V domains shown, also called Ab53 IgG) VH: EVKLLESGGGLVQPGGSMKLSCVASGFTFSIFWMNWVRQSPEKGLEWVAEVRLKSNNYATHYAESVKGRFTISRDDSKSGVYLQMNNLRAEDTGIYYCTRGYYGSNYGEYWGQGTTLTVSS VL: not shown | binds | binds | binds | binds | binds | binds | – | –
2 | Ab53 Fab (Fab, V domains shown, also called Fab fragment of Ab53; source: cleavage of purified Ab53 IgG with the Pierce Fab Preparation Kit) VH: EVKLLESGGGLVQPGGSMKLSCVASGFTFSIFWMNWVRQSPEKGLEWVAEVRLKSNNYATHYAESVKGRFTISRDDSKSGVYLQMNNLRAEDTGIYYCTRGYYGSNYGEYWGQGTTLTVSS VL: not shown | – | – | – | binds | – | – | – | –
3 | Ab64 mouse monoclonal antibody (IgG2a,κ) specific for FtGroEL (antibody, V domains shown, also called Ab64 IgG) VH: EVQLLESGPELVRLGASVKVSCKASGYSFTDYNMYWVKQSHGKSLEWIGYIDPYNGDASYNQKFKGKATLTVDKSSSTAFMHLNSLTSEDSAVYYCARTGYYYGRSYAMDYWGQGTSVTVSS VL: DIVMTQAAPSVPVTPGESVSISCRSSKSLLHSNGNTYLYWFLQRPGQSPQLLIYRMSNLASGVPDRFSGSGSGTAFTLRISKVEAEDVGVYYCMQHLEYPYTFGGGTKLDVK | – | binds | binds | binds | – | binds | no binding | binds
4 | Ab64 Fab (Fab, V domains shown, also called Fab fragment of Ab64; source: cleavage of purified Ab64 IgG with the Pierce Fab Preparation Kit) VH: EVQLLESGPELVRLGASVKVSCKASGYSFTDYNMYWVKQSHGKSLEWIGYIDPYNGDASYNQKFKGKATLTVDKSSSTAFMHLNSLTSEDSAVYYCARTGYYYGRSYAMDYWGQGTSVTVSS VL: DIVMTQAAPSVPVTPGESVSISCRSSKSLLHSNGNTYLYWFLQRPGQSPQLLIYRMSNLASGVPDRFSGSGSGTAFTLRISKVEAEDVGVYYCMQHLEYPYTFGGGTKLDVK | – | – | – | binds | – | – | – | –
